Measurements: article PMC9396614

Target: Arctic mutant (E22G) amyloid-β 1-42 peptide (human)

reduction of the nucleation units generated during Aβ42^arc fibrillization, calculated from the fitted ThT kinetics, with monomeric rh Bri2 BRICHOS up to an equal ratio: 80%
Substance: recombinant human Bri2 BRICHOS domain, monomer (domain or fragment)
